According to patent publication US20210238281A1 (INSTITUT NATIONAL DE LA SANTE ET DE LA RECHERCHE MEDICALE …, published 2021):

Columns and labels:
[1] = biological target: T1, recombinant murine MOG protein (murine, UniProt Q61885 29-156, limits assumed); assay: phage-scFv ELISA on coated recombinant murine MOG (0.5 µg/well), anti-M13 HRP, OD450 over BSA background
T1 construct: Bought recombinant protein; also called MMOG
T1 sequence (looked up): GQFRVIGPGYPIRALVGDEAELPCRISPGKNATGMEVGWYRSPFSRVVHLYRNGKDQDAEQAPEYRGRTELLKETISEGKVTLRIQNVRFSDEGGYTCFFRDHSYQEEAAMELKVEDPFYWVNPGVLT
Description: (§1) The binding characteristics of the scFvs expressed on the surface of the phages isolated during the screening were determined using an ELISA assay using the recombinant MOG protein (R&D system). Along with the selected clones, phage-scFv-8-18C5 is expressed to serve as a positive control for ELISA. Briefly, phage-scFv were produced in the form of clones isolated on a 96-well plate in 800 μl of 2YT/ampicillin/glucose cultures infected with the helper phage M13K07 (as described previously). The phages produced overnight at 26° C. were then recovered in the supernatants after 30 minutes of centrifugation at 3000 g. These supernatants were directly diluted 1/2 in PBS/4% BSA/0.1% Tween 20 and tested on Maxisorp immunoplates previously coated with 0.5 μg of human or murine MOG or PBS (background control (bdf) in BSA)/well and blocked with 4% BSA in PBS. After incubation for 2 hours at 37° C., the wells were washed 3 times with PBS/0.1% Tween-20 and bound phages-scfv were detected with anti-M13 HRP antibody (GE Healthcare). The plate is read at 450 nm (OD) on a plate reader (TECAN). The results are expressed as a ratio: OD on target/OD bdf (OD on an uncoated plate saturated with BSA) and the ratios are compared with that obtained for the positive control.

[2] = biological target: T2, recombinant human MOG protein (human, UniProt Q16653 30-154, limits assumed); assay: phage-scFv ELISA on coated recombinant human MOG (0.5 µg/well), anti-M13 HRP, OD450 over BSA background
T2 construct: Bought recombinant protein; also called HMOG
T2 sequence (looked up): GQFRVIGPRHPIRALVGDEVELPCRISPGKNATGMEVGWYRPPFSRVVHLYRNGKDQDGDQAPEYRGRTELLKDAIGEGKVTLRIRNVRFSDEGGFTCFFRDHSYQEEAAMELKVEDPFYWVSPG
Description: as §1

B1: anti-MOG MO3J-40 antibody (scFv, V domains shown)
VH: EVQLVESGAEVKKPGESLKISCKGSGYTFTSNWIGWVRQMPGKGLEWMGIIYPGDSDTRYSPSFQGQGTISADKSISTAYLQWSSLRASDTAMYYCARASIAVRPHIDYWGQGTLVTVSS
VL: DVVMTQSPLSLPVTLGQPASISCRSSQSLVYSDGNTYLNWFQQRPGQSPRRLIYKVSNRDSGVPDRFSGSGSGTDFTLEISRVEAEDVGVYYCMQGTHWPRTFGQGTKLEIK
With B1 as the binder, how does the “ratio OD on target/OD bdf” value [1] read?
The value was 6.48 ratio.

And the “ratio OD on target/OD bdf” value [2]?
Its value is 21 ratio.

B2: anti-MOG MO3J-43 antibody (scFv, V domains shown)
VH: EVQLVESGGGLVKPGGSLRLSCAASGFTFSDYYMSWIRQAPGKGLEWVSYISSSGNTIYYADSVKGRFTISRDNAKNSLYLQMNSLRAEDTAVYYCAKDSPVPTVWGQGTLVTVSS
VL: QSVVTQPPSVSGAPGQRVSISCTGGSSNIGADYDVHWYQQLPGTAPKLLIYGNNNRPSGVPDRFSGSKSGTSASLAISGLQPEDEAVYYCQSYDSGLRSSVFGGGTKLTVL
B2 was tested. Which “ratio OD on target/OD bdf” value [1] did it give?
Its value is 8.26 ratio.

What about the “ratio OD on target/OD bdf” value [2] of the same binder?
Its value is 20.8 ratio.

B3: anti-MOG MO3J-44 antibody (scFv, V domains shown)
VH: QVQLVQSGAEVRKPGASVKISCQISGYNFISYTIQWVRQAPGQRPEWMGWINSGNGNTKYSQKFQGRVTFTRDTSTSTAYMELSSLRSEDTAVYYCARSGIGPWGQGTLVTVSS
VL: EIVLTQPPDLQSVTPKKKVTITCRASQSIGNSLHWCQQKPDQSPKLLIKYASQSISGVPSRFSGSGSGTDFTLTINSLEAEDAATYYCHQSSSLPFTFGPGTKVDIK
Which results are given for B3?
ratio OD on target/OD bdf [1]: 6.61 ratio; ratio OD on target/OD bdf [2]: 14.5 ratio

B4: anti-MOG MO3J-51 antibody (scFv, V domains shown)
VH: EVQLVQSGAEVKKPGASVKVSCKASGYTFTSYGISWVRQAPGQGLEWMGWISAYNGNTNYAQKLQGRVTMTTDTSTSTAYMELRSLGSDDTAVYYCARNMGCSSTSCFVSWFDPWGQGTLVTVSS
VL: QSVLTQPPSVSAAPGRKVTISCSGSSSNIGNNYVAWYQQLPGTAPKLLIYENNKRPSGIPGRFSGSKSATSATLGITGLQTGDEADYYCGTWDNSLSAWVFGGGTKLTVL
B4 was tested. Which “ratio OD on target/OD bdf” value [1] did it give?
Its value is 4.76 ratio.

And the “ratio OD on target/OD bdf” value [2]?
The value was 14.6 ratio.

B5: anti-MOG MO3J-52 antibody (scFv, V domains shown)
VH: QMQLVQSGAEVKKPGSSVKVSCKASGGTFSSYAISWVRQAPGQGLEWMGGIIPIFGTANYAQKFQGRVTITADESTSTAYMELSSLRSEDTAVYYCARAREGLLVNYYGMDVWGQGTLVTVSS
VL: DIQMTQSPSTLSASVGDRVTTTCRASQGISNYLAWFQQKPGKAPKSLIYAASSLQSGVPSRFSGGGSGTDFTLTINSLQPEDFATYYCLHDYNYPTFGQGTKVEIK
For B5, which “ratio OD on target/OD bdf” value [1] is on record?
Its value is 6.86 ratio.

And the “ratio OD on target/OD bdf” value [2]?
The value was 16.3 ratio.

B6: anti-MOG MO3I-56 antibody (scFv, V domains shown)
VH: QVQLVESGGGVVQPGSSLRLSCTASGFKFDDYAMHWVRQAPGKGLEWVSGISWNSGSIGYADSVKGRFTISRDNAKNSLYLQMNSLRAEDTASYYCAKSLPHYYDSPPYGMDVWGQGTLVTVSS
VL: DIQLTQSPSSLSASVGDRVTITCRASQGISSALAWYQQKPGKAPKLLIYDASSLESGVPSRFSGSGSGTDFTLTISSLQPEDFATYYCQHRGTFGGGTKVDIK
How did the “ratio OD on target/OD bdf” value [1] turn out when B6 was run?
The value was 2.29 ratio.

And the “ratio OD on target/OD bdf” value [2]?
Its value is 2.29 ratio.

B7: anti-MOG MO3I-57 antibody (scFv, V domains shown)
VH: QVQLVQSGAEVKKPGASVKVSCKASGYTFSSYGISWVRQAPGQGLEWMGWISANTGNTDYAERLQGRVTMTTDTSTTTAYMELRSLRSDDTAVYYCARGAPNGYAVDYWGQGTLVTVSS
VL: QSVLTQPPSASGAPGQRVSISCSGSSSNIGTNHVYWYQQFTGMAPKLIIDTNNQRPPGVPARFSGSKSGTSASLAISGLRSEDESDYYCLTWDDGLYDWVFGGGTKLTVL
For B7, which “ratio OD on target/OD bdf” value [1] is on record?
The value was 2.77 ratio.

What about the “ratio OD on target/OD bdf” value [2] of the same binder?
Its value is 2.44 ratio.

B8: anti-MOG MO3I-60 antibody (scFv, V domains shown)
VH: EVQLVESGGGLVKPGGSLGLSCAASGFTFTNAWGHWVRQAPGKGLEWVGRIKSKTDGGTTDYAAPVKDRFSISRDDSKNTLYLQMNSPTTEDTAVYYCATENGMDIVTTFDSWGQGTLVTVSS
VL: AIRMTQSPSSLSASVGDRVTITCRASQSIGSYLSWYRQKPGKAPKLLIYDSSTLQSGVASRFSGSGSGTDFTLTISALQPEDFATYYCHQSYRTPLSFGGGTKVEIK
For B8, which “ratio OD on target/OD bdf” value [1] is on record?
The value was 2.75 ratio.

And the “ratio OD on target/OD bdf” value [2]?
Its value is 2.09 ratio.

B9: anti-MOG MO3I-63 antibody (scFv, V domains shown)
VH: QVQLVQSGAEVKTPGASVKISCKASGYAFTSYAMHWVRAPGQGLEWMGWINAANANTKYSQRFQGRVTITRDTSASTAYMELNSLRSEDTAVYYCASSEDISRSNYYNYYMDVWGKGTTVTVSS
VL: DIVMTQSPSSLSASVGDRVTITCRASQTITTSLAWFQHRPGKAPKLLIYSASSLQSGVPSRFSGSGSGTDFTLTISSLQPEDFATYSCQQTYSAPPTFGGGTKVEIK
What does the source list for B9?
ratio OD on target/OD bdf [1]: 5.55 ratio; ratio OD on target/OD bdf [2]: 2.66 ratio

B10: anti-MOG MO3I-69 antibody (scFv, V domains shown)
VH: DQVQLVQSGAEVKPGASVKVSCKASGYTFTYYYLHWVRQAPGQGLEWMGWINPNSGATIFAQKFQGRVTLTRDTSISTAYLDLSRLRSDDTAVYYCARASMAYQYHSDVDYWGLGTLVTVSS
VL: QSVLTQPPSVSGAPGQRVTISCTGSSSNIGAGYDVHWYQQLPGTAPKLLIYGNSNRPSGVPDRFSGSKSGTSASLAITGLQAEDEADYYCQSYDSSLVVFGGGTKLTVL
Which “ratio OD on target/OD bdf” value [1] does the source give for B10 here?
The value was 2.76 ratio.

And the “ratio OD on target/OD bdf” value [2]?
Its value is 2.26 ratio.

B11: anti-MOG MO4H-106 antibody (scFv, V domains shown)
VH: QVQLVQSGAEVKKPGASVKVSCKASGYTFTTYNIHWMRQAPGQSLEWMGWISTGNGDTEYSQKLQGSVTFTRDTSASTVYMDLNSLTPGDTAVYSCARESLFVSSWYADYWGQGTLVTVSS
VL: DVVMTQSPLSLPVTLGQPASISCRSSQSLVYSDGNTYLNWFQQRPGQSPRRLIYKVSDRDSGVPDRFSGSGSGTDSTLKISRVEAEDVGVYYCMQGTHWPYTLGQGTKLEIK
For B11, which “ratio OD on target/OD bdf” value [1] is on record?
Its value is 2.78 ratio.

What about the “ratio OD on target/OD bdf” value [2] of the same binder?
Its value is 2.55 ratio.

B12: anti-MOG MO4H-118 antibody (scFv, V domains shown)
VH: EVQLVQSGAEVKKPGASVKVSCKVSGYTLTELSMHWVRQAPGKGLEWMGGFDPEDGETIYAQKFQGRVTMTEDTSTDTAYMELSSLRSEDTAVYYCATIGPKVAAHTYYFDYWGQGTLVTVSS
VL: DIQLTQSPSSLSASVGDRVTITCRASQTIVTYLNWYQQKPGKAPNLLITDASSLQSGVPSRFSGTESGTDFTLTISSLQPEDFGSYYCQSYMNPITFGQGTRLEIN
For B12, which “ratio OD on target/OD bdf” value [1] is on record?
The value was 4.01 ratio.

And the “ratio OD on target/OD bdf” value [2]?
Its value is 2.04 ratio.

B13: anti-MOG MO3I-30 antibody (scFv, V domains shown)
VH: EVQLLESGGGLVQPGGSLRLSCVASGFTFRSYWMHWVRQDPGEGLVWVSRVSGDGSSTNYADSVKGRFVISRDNAKDTLYLQMYSLRGEDTAVYYCLRGNDGYGNFDYWGQGTTVTVSS
VL: DVVMTQSPLSLPVTLGQPASISCRPSQSLVYSDGNTYLNWFQQRPGQSPRRLIYKVSNRDYVVPDRFSGSGSGTDFTLKISRVEAEDVGVYYCMQGTHWPLTFGGGTKVEIK
Which “ratio OD on target/OD bdf” value [1] does the source give for B13 here?
The value was 2.19 ratio.

What about the “ratio OD on target/OD bdf” value [2] of the same binder?
Its value is 2.86 ratio.

B14: anti-MOG MO3I-33 antibody (scFv, V domains shown)
VH: DQVQLVQSGAEVKPGATVKISCKVSGYTFTDYYMHWVQQAPGKGLEWMGLVDPEDGETIYAEKFQGRVTITADTSTDTAYMELSSLRSEDTAVYYCATSYHGTSGFDYWGQGTLVTVSS
VL: QSVVTQPPSVSGAPGQRVTIACTGSNSDIGAGHDVHWYQQFPRTAPKLIIFGNTNRPSGVPDRFSGSKSGTSASLVITGLQADDEADYHCQSYDNNLSGPIFGGGTKLTVL
Which “ratio OD on target/OD bdf” value [1] does the source give for B14 here?
Its value is 2.52 ratio.

What about the “ratio OD on target/OD bdf” value [2] of the same binder?
The value was 2.53 ratio.

B15: anti-MOG MO3I-34 antibody (scFv, V domains shown)
VH: EVQLVQSGAEVKKPGASVKVSCKASGYTFTSYGISWVRQAPGQGLEWMGWISAYNGNTNYAQKLQGRVTMTTDTSTSTAYMELRSLRSDDTAVYYCARNMGCSSTSCFVSWFDPWGQGTLVTVSS
VL: QSVLTQPPSVSAAPGQKVTISCSGSRSNIGSNYVSWYQQLPGTAPKLLIYDNTRRPSGIPDRFYGSKSGTSATLDITGLQTGDEADYHCATWDSSLSALLFGGGTKVTVL
How did the “ratio OD on target/OD bdf” value [1] turn out when B15 was run?
Its value is 2.45 ratio.

What about the “ratio OD on target/OD bdf” value [2] of the same binder?
The value was 2.14 ratio.
